Measurements reported in the nanobody polyreactivity screen of Harvey et al. (2022).

test: yeast display, Sf9 membrane polyspecificity reagent, FACS + sequencing; frameworks hold sequencing errors
Outline: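 Nanobodies from a synthetic yeast display library (Saccharomyces cerevisiae BJ5465), induced 36–48 hours with galactose, were stained 1 hour at 4 °C with 10% biotinylated, detergent-solubilized Sf9 membrane reagent, enriched on streptavidin microbeads, then FACS-sorted. Anti-HA (expression) and streptavidin (reagent binding) fluorescence set low and high (top ~1%) gates. Polyreactivity labels come from the gate of origin. Genes were colony-PCR amplified, MiSeq 2 × 250 sequenced and filtered by CDR length.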

| Sequence | polyreactivity (PSR sort gate) |
| --- | --- |
| QVQLVESGGGLVQAGGSLRLSCAASGRTFHVYARGWYRQAPGKERELVAAISGRTGSTYYADSVKGRFTISRDNAKNTVYLQMNSLKPEDTAVYYCAARRWSHGTGYGSWGQGTQVTVSS | high polyreactivity |
| QVQLVESGGGLVQAGGSLRLSCAASGRTFHYYVMGWYRQAAGKERELVAAISRSGGNTYYADSVKGRFTISRDNAKNTVYLQMNSLKPEDTAVYYCAAALSAYVKWDYYYWGQGTQVTVSS | low polyreactivity |
| QVQLVESGGGLVQAGGSLRLSCAASGRTFHYYVMGWYRQAPGKERELVAAISRSGGNTYYADSVKGRFTISLDNAKNTVYLQMNSLKPEDTAVYYCAAALSAYVKWDYYYWGQGTQVTVSS | low polyreactivity |
| QVQLVESGGGLVQAGGSLRLSCAASGRTFIFNAMGWYRQAPGKERELVAAISSGGGTNYADSVKWRFTISRDNAKNTVYLQMNSMKPEDTAVYYCAAVPRDHYSYVYDGDKYDYWGQGTQVTVSS | low polyreactivity |
| QVQLVESGGGLVQAGGSLRLSCAASGRTFIGNAMGWSRQAPGKERELVAGIDSDGSTNYADSVKGRFTISRDNAKNTVYLQMNSLKPEDTAVYYCAAVQGYRFYEYYYWGQGTQVTVSS | low polyreactivity |
| QVQLVESGGGLVQAGGSLRLSCAASGRTFIGYAMGWYRQAPGKERELVAAISSRGGRTYYADSVKGRFTISRDNAKNTVYLQMNSLKPEDTAVYYCAAGRVKHSGYDYWGQGTQVTVSS | high polyreactivity |
| QVQLVESGGGLVQAGGSLRLSCAASGRTFIGYAMGWYRQAPGKERELVAAISSSGGRTYYADSVKGRFTISRDNAKNTVYLQMNSLKPEDTAVYYCNAVRYVLGYSYDYNYWGQGTQVTVSS | high polyreactivity |
| QVQLVESGGGLVQAGGSLRLSCAASGRTFIGYAMGWYRQAPGKERELVAAITSSGGSTYYSDSVKGRFTISRDNAKNTVYLQMNSLKPEDTAVYYCAAGRHSEDNYWGQGTQVTVSS | high polyreactivity |
| QVQLVESGGGLVQAGGSLRLSCAASGRTFIKYARGWYRPAPGKERELVAAISRNGGSTNYADSVKGRFTISRDNAKNTVYFQMNSLKPEDTAVYYCAAVGTVSRTVGYNYWGQGTQVTVSS | high polyreactivity |
| QVQLVESGGGLVQAGGSLRLSCAASGRTFIPNAMGWYRQAPGKERELVARITLRGGSTYYADSVKGRFTISRDNAKNTVYLQMNSLKPEDTAVYYCAAVFSRKGLRYDYWGQGTQVTVSS | low polyreactivity |
| QVQLVESGGGLVQAGGSLRLSCAASGRTFIPYAMGWYRQAPGKERELVATISRSGGSTYYADSVKGRFTISRDNAKNTVYLQMNSLKPEDSAVYYCAAQWVRKSGREGYWGQGTQVTVSS | high polyreactivity |
| QVQLVESGGGLVQAGGSLRLSCAASGRTFIRYAMGWYRQAPGKERELVAAISSRGGRTHYADSVKGRFTISRDNAKNTVYLQMNSLKPEDTAVYYCAADLTYVTVPGASYDYWGQGTQVTVSS | low polyreactivity |
| QVQLVESGGGLVQAGGSLRLSCAASGRTFISNAMGWYRQAPGKERELVADINGGGSTYYADSVKGRFTISRDNAKNTVYLQINSLKPEDTAVYYCAADVWTLDPDEYDYWGQGTQVTVSS | low polyreactivity |
| QVQLVESGGGLVQAGGSLRLSCAASGRTFITNAMGWSRPAPGKEREFVAAIRGGRGSTYYADSVKGRFTISRDNAKNTVYLQMNSVKPEDTAVYFCAARYWLFPRGYNYWGQGTQVTVSS | high polyreactivity |
| QVQLVESGGGLVQAGGSLRLSCAASGRTFIVYAMGWYRQAPGKERELVAAITTSLGRTYYADSVKGRFTISRDNAKNTVYLQMNSLKPEDTAVYYCAADRLDGYSEYYYWGQGTQVTVSS | low polyreactivity |
| QVQLVESGGGLVQAGGSLRLSCAASGRTFIYNAMGWYRQAPGKERELVAAISTSGGRTYYADSVKGRFTISRDNAKNTVYLQMNSLKPEDTAVYYCNAVRSYRMDYWGQGTQVTVSS | high polyreactivity |
| QVQLVESGGGLVQAGGSLRLSCAASGRTFIYYAMGWYTQAPRKERDYVAIITWNGTSTNYADSVKGRFTISRDNAKNTVYLQMNSLYPEDTAVYYCAASFWTDYYRYDYWGQGTQVTVSS | low polyreactivity |
| QVQLVESGGGLVQAGGSLRLSCAASGRTFKAYAMGWYRQAPGKERELVAAISYSTTSTYYADSVKGRFTISRDNAKNTVYLQMNSLKPEDTAVYYCAVDYIIWYDGYLLYYWGQGTQVTVSS | low polyreactivity |
| QVQLVESGGGLVQAGGSLRLSCAASGRTFKDYAMGWYRPAPGKERELFAAISRGGSTNYADSVKGRFTISRDNAKNTVYLQVNSLKPEDTAVYYCARRYIVQSGDDYWGQGTQVTVSS | low polyreactivity |
| QVQLVESGGGLVQAGGSLRLSCAASGRTFKFYAMGWYRQAPGKERELVAAITSDGSTYYADSVKGRFTISRDNAKNTVYLQMNSQKPEDTAVYYCAKRSNTGRGYDYWGQGTQVTVSS | high polyreactivity |
| QVQLVESGGGLVQAGGSLRLSCAASGRTFKFYAMGWYRQAPGKERELVARITSNSGSTYYADSVKGRFTISRDTAKNTVYLQMTSLKPEDTAVYYCAVRGTLGSYWYTYYYWGQGTQVTVSS | high polyreactivity |
| QVQLVESGGGLVQAGGSLRLSCAASGRTFKHYAMGWYRQAPGKERELVAAITSGGSTYYADSVKGRFTISRDNAKNTVYLLMNSLIPEDTAVYYCNKESYFDTYRRYDSWGHGTQVTVSS | low polyreactivity |

| Sequence | polyreactivity (PSR sort gate) |
| --- | --- |
| QVQLVESGGGLVQAGGSLRLSCAASGRTFKIHAMGWYRQATGKERELVAAISTSGGSTYYADSVKGRLTISRDNAKNTVYLQMNSLKPEDTAVYYCNAPVFRVGRPEYDYWGQGTQVTVSS | high polyreactivity |
| QVQLVESGGGLVQAGGSLRLSCAASGRTFKINAMGWYRPAPGKERELVAAISRGGGSTYADSVKGRFTISRDNAKNTVYLQMNSLKPEDTAVYYCAARVYGTRKINYSWGQGTQVTVSS | high polyreactivity |
| QVQLVESGGGLVQAGGSLRLSCAASGRTFKINAMGWYRQAPGKERELVAAIRRRGGSTYYADSVKGRFTISRDNAKNTVYLQMNSLKPEDTAVYYCAKTSWPYRVPSDSVAYDYWGQGTQVTVSS | low polyreactivity |
| QVQLVESGGGLVQAGGSLRLSCAASGRTFKIYTMGWYRPAPGKERELVAAISRGGSTYYADSVKGRFTISRDNAKNTVYLQMNSLKPEDTAVYYCAVDLYYLSSASTRQVRRDYWGQGTQVTVSS | high polyreactivity |
| QVQLVESGGGLVQAGGSLRLSCAASGRTFKLYAMGWYRQAPGKERALVAAITESGGSTYYADSVKGRFTISRDNAKNTVYLQMNSLKPEDTAVYYCAAYASAGTRGGYDYWGQGTQVTVSS | low polyreactivity |
| QVQLVESGGGLVQAGGSLRLSCAASGRTFKPYAMGWYRPAPGKDRELVAAISTRGGSTYFADSVKGRFTISRDNAKNTVYLQMNSLKPEDTAVYYCAATQPVRDYDYWGQGTQVTVSS | low polyreactivity |
| QVQLVESGGGLVQAGGSLRLSCAASGRTFKPYAMGWYRQAPGKERELVAAISTGGSTNYADSVKGRFTISRDNAKNTVYLQMKSLKPEDTAVYYCAALYSYFWLIIDYGYWGQGTQVTVSS | low polyreactivity |
| QVQLVESGGGLVQAGGSLRLSCAASGRTFKPYAMGWYRQAPGKERELVAVITSNGSSTYYADSVKGRFTISRDNAKNTVYLQMNSLKPEDTAVYYCATKLTYTLTSGAYAYDYWGQGTQVTLSS | low polyreactivity |
| QVQLVESGGGLVQAGGSLRLSCAASGRTFKQYAMGWYRQAPGKERELVAAISRTGGRTYYADSVKGRFTISRDNAKNTVYLQMNSLKPEDTAVYYCNAVYYWYKGDYWGQGTQVTVSS | high polyreactivity |
| QVQLVESGGGLVQAGGSLRLSCAASGRTFKRYAMGWYRQAPGKERELVAVITSGGSTYYADSVKGRFTISRDNAKNTVYLQMNSLKPEDTAVYYCAARYGVRIWHDALYGYWGQGTQVTVSS | high polyreactivity |
| QVQLVESGGGLVQAGGSLRLSCAASGRTFKTYSMGWYRQAPGKERELVASISGSGSSTYYADSVKGRFTISRDNAKNSVYLQMKSRKPEDTAVYYCNAARSQGYEYATYGYWGQGTQVTVSS | low polyreactivity |
| QVQLVESGGGLVQAGGSLRLSCAASGRTFKTYVMGWYRQAPGKERELVAGITSGGGSTYYADSVKGRFTISRDNAKITVYLQMNSLKPEDTAVYYCAAVSKDGFWVSYYYWGQGTQVTVSS | high polyreactivity |
| QVQLVESGGGLVQAGGSLRLSCAASGRTFKVNAMGWYRQAPGKERELVAAITYSGGGTYYADSVKGRFTISRDNAKNTVYLQMNSLKPEDTAVYYCAAPVYTWYHRYDYWGQGTQVTVSS | high polyreactivity |
| QVQLVESGGGLVQAGGSLRLSCAASGRTFKVYAMGWYRQAPWKERDLVAAISFSGGSTYYADSVKGRFTISRDNAKNTDYLQMNSLKPEDTAVYYCAAKRYGEYRARGYYYWGQVTQVTVSS | high polyreactivity |
| QVQLVESGGGLVQAGGSLRLSCAASGRTFKYNAMGWYIQAPGKERELVAAISSRGGSTYYADSVKGRFTISRDNAKNTVYLQMNSLKPEDTAVYYCAKATSSSEYGYDYWGQGTQVTVSS | high polyreactivity |
| QVQLVESGGGLVQAGGSLRLSCAASGRTFKYNAMGWYRQAPGKERELVAAISNRGGSTYYADSVKGRFTISRDNAKNTVYLQMNSLKPEDTAVYYCAVRAVYRWSSGYGYWGQGTQVTVSS | high polyreactivity |
| QVQLVESGGGLVQAGGSLRLSCAASGRTFKYNAMGWYRQAPGKERELVAVISYDGSTYYADSVKGRFTISRDNAKNTVYLQMNSLKPEDTAVYYCAARYLDVRPYYYWGQGTQVTVSS | high polyreactivity |
| QVQLVESGGGLVQAGGSLRLSCAASGRTFKYYAMGWYRQAPGKERELVAAISSGGSTYYADSVKGRFTISRDNAKNTVYLQMNSLKPEDTAVYYCAAYSSYFRRRKWGYDYWGQGTQVTVSS | high polyreactivity |
| QVQLVESGGGLVQAGGSLRLSCAASGRTFKYYAMGWYRQAPGKERELVAAISWSGSSTNYADSVKGRFTISRDNAKNTVYLQMNSLKPEDTAVYYCAAATYRQFTGTYDYWGQGTQVTVSS | high polyreactivity |
| QVQLVESGGGLVQAGGSLRLSCAASGRTFKYYAMGWYRQAPGKERELVAGITGRGGGTYYADSVKGRFTISRDNAKNTVYLQMNSLKPEDTAVYYCAAERIYWKYYEYDYWGQGTEVTVSS | high polyreactivity |
| QVQLVESGGGLVQAGGSLRLSCAASGRTFKYYTMGWYRQAPGKERELVAAISASGGSTYYADSVKGRFTISRDNAKNTVYLQMNSLKPEDTAVYYCAKGANRAIHKQPTRSRLDSWGQGTQVTVSS | high polyreactivity |
